Measured values as given in PMC11617674, “The activity of the ribonucleotide monophosphatase UmpH is controlled by interaction with the GlnK signaling protein in Escherichia coli” (The Journal of Biological Chemistry, 2024).

Target: T1, UmpH (ribonucleotide monophosphatase), untagged recombinant (E. coli, UniProt P0AF24 1-250)
T1 construct: UmpH (NagD), ribonucleotide monophosphatase of E. coli; also called NagD; untagged UmpH; source: E. coli BL21 (λDE3), pET29a, purified (ammonium sulfate, gel filtration)
T1 sequence (looked up): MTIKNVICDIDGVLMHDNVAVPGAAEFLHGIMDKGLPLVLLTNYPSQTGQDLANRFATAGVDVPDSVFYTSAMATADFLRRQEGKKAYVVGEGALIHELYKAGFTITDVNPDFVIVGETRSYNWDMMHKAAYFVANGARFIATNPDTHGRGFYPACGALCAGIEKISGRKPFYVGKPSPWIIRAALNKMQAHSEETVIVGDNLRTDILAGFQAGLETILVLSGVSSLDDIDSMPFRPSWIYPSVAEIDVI
Test: pull-down; His-PII on Ni2+ magnetic beads, untagged UmpH; 50 mM Tris-HCl pH 8.0, 0.1 M NaCl, 5 mM MgCl2, 10% glycerol, 20 mM imidazole; room temperature; without nucleotides or with ATP or ADP (effectors as indicated); SDS-PAGE, Coomassie
Conditions: both partners purified

B1: His-GlnB from Azospirillum brasilense (natural protein, UniProt P21193 1-112, looked up)
chain: MKKIEAIIKPFKLDEVKEALHEVGIKGITVTEAKGFGRQKGHTELYRGAEYVVDFLPKVKIEVVMEDSLVERAIEAIQQAAHTGRIGDGKIFVTPVEEVVRIRTGEKGGDAI
notes: GlnB, PII protein of Azospirillum brasilense; also called GlnBAb; His-AbPII; not shown: His tag, N-terminal, kept
**Q.** Does B1 bind?
**A.** Result: binds
